This is an account of results in patent US20170002079A1.

The test deals with human ST2 on primary human cells (human) (UniProt Q01638). Kind of test: cell-based or functional assay.
human ST2 on primary human cells (human), sequence (Q01638 19-556 A78X, form in doubt): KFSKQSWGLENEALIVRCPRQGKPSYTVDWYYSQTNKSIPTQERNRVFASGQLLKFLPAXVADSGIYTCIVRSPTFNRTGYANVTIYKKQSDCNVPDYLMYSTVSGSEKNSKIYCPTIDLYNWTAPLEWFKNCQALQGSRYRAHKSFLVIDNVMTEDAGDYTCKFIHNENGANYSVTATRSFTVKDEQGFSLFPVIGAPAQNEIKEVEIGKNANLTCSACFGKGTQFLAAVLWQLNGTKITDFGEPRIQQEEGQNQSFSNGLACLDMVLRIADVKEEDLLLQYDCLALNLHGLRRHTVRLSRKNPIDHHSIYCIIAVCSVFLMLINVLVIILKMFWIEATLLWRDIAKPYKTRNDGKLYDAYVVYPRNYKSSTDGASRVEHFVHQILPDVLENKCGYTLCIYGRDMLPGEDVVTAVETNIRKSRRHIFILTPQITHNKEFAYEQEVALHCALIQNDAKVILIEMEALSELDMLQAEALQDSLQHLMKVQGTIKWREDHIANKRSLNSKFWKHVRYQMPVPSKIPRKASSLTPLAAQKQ

On to 97203 (antibody), for which the IC50 (ug/ml), inhibition of IL-33-dependent IFN-γ release from human NK cells (IL-33 10 ng/mL and IL-12) is 0.385 µg/mL.
